Here are results for eight molecules from publication PMC5201417, “Drosophila non-muscle myosin II motor activity determines the rate of tissue folding” (eLife, 2016).

Broadly, the stoichiometry N is the number of molecules, sites or subunits per partner or assembly.

Experiment [1] has as its target Drosophila non-muscle myosin II heavy chain, HMM construct (amino acids 1-1363) (Drosophila melanogaster) (UniProt Q99323). The experiment can be described thus: co-purification (Flag affinity chromatography, stained SDS gel); heavy chain and both light chains co-expressed in Sf9 cells, purified via Flag affinity chromatography (HMM also by size exclusion chromatography); PageBlue-stained 4-12% Bis-Tris gel. (Size exclusion chromatography separates by hydrodynamic size, large species first.)

The target in experiment [2] is Drosophila non-muscle myosin II heavy chain, full length (amino acids 1-1971) (Drosophila melanogaster) (UniProt Q99323). The description is as above.
Sequence of Drosophila non-muscle myosin II heavy chain, full length (amino acids 1-1971) (Drosophila melanogaster) (Q99323 other isoform, or with tags, fused parts or gaps): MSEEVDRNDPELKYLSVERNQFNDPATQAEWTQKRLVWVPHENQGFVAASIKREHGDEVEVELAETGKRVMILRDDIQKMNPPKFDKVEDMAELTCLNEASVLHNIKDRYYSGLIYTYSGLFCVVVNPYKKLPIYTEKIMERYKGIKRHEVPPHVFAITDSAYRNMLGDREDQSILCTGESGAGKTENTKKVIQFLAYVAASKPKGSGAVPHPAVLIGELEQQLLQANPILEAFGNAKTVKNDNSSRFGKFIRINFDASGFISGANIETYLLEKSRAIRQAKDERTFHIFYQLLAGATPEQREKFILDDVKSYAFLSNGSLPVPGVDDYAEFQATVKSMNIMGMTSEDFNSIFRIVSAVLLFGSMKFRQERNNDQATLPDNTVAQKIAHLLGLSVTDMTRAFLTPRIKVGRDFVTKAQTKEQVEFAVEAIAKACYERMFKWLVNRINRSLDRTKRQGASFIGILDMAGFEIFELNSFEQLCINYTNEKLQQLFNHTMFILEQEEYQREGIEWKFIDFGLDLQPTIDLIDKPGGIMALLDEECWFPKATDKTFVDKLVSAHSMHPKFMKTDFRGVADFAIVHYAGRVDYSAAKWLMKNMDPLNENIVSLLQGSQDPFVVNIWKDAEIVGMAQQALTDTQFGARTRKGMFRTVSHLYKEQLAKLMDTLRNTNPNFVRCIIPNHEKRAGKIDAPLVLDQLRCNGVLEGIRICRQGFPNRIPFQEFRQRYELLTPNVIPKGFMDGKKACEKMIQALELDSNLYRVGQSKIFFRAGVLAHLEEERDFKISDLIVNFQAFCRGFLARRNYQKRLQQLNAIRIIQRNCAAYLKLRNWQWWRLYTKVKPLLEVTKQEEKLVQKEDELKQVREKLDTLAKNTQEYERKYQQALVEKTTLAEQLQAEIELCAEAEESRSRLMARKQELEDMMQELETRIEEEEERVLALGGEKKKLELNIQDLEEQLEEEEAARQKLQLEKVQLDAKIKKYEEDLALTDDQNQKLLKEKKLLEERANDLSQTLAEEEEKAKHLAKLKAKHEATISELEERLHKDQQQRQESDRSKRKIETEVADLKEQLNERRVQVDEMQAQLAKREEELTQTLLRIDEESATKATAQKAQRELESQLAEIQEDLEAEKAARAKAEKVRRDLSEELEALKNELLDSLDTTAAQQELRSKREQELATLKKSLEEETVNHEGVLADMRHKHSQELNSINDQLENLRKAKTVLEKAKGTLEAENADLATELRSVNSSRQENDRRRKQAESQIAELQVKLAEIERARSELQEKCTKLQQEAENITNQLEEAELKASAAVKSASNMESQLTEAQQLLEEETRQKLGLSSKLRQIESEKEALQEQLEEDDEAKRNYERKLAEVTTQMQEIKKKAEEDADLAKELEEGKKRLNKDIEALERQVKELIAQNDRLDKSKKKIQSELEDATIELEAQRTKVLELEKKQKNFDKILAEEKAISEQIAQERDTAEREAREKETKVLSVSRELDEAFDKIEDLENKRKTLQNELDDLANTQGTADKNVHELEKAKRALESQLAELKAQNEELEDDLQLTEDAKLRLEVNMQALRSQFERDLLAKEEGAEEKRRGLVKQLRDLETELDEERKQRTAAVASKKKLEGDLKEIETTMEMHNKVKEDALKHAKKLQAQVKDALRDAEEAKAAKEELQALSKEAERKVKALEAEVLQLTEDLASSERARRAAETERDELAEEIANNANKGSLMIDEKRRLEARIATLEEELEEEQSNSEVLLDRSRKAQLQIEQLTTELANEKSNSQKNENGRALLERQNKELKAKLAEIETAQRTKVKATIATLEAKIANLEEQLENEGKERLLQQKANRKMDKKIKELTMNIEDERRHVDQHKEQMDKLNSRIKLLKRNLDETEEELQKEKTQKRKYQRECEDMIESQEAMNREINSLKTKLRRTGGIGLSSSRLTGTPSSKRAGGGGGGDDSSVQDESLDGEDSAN
The target in experiment [3] is filamentous actin from rabbit skeletal muscle (rabbit) (UniProt P68135).
In experiment [4] the target is T1, Drosophila non-muscle myosin II heavy chain, full length (amino acids 1-1971) (Drosophila melanogaster, UniProt Q99323-2 1-1971).
T1 construct: the heavy chain alone, for the rows of heavy chain with each light chain; also called full-length (228 kDa); myosin heavy chain
The experiment can be described thus: co-purification (Flag affinity chromatography, stained SDS gel); heavy chain and both light chains co-expressed in Sf9 cells, purified via Flag affinity chromatography (HMM also by size exclusion chromatography); PageBlue-stained 4-12% Bis-Tris gel. The settings on record: partners not purified.

Experiment [5] has as its target T2, Drosophila non-muscle myosin II heavy chain, HMM construct (amino acids 1-1363) (Drosophila melanogaster, UniProt Q99323-2 1-1363).
T2 construct: numbers count on: NP_001014553.1; the heavy chain alone, for the rows of heavy chain with each light chain; whether it carries the Halo tag is not clear; also called HMM (160 kDa); myosin heavy chain
The description is as above. To be noted: partners not purified.

Sequence of Drosophila non-muscle myosin II heavy chain, HMM construct (amino acids 1-1363) (Drosophila melanogaster) (Q99323 other isoform, or with tags, fused parts or gaps): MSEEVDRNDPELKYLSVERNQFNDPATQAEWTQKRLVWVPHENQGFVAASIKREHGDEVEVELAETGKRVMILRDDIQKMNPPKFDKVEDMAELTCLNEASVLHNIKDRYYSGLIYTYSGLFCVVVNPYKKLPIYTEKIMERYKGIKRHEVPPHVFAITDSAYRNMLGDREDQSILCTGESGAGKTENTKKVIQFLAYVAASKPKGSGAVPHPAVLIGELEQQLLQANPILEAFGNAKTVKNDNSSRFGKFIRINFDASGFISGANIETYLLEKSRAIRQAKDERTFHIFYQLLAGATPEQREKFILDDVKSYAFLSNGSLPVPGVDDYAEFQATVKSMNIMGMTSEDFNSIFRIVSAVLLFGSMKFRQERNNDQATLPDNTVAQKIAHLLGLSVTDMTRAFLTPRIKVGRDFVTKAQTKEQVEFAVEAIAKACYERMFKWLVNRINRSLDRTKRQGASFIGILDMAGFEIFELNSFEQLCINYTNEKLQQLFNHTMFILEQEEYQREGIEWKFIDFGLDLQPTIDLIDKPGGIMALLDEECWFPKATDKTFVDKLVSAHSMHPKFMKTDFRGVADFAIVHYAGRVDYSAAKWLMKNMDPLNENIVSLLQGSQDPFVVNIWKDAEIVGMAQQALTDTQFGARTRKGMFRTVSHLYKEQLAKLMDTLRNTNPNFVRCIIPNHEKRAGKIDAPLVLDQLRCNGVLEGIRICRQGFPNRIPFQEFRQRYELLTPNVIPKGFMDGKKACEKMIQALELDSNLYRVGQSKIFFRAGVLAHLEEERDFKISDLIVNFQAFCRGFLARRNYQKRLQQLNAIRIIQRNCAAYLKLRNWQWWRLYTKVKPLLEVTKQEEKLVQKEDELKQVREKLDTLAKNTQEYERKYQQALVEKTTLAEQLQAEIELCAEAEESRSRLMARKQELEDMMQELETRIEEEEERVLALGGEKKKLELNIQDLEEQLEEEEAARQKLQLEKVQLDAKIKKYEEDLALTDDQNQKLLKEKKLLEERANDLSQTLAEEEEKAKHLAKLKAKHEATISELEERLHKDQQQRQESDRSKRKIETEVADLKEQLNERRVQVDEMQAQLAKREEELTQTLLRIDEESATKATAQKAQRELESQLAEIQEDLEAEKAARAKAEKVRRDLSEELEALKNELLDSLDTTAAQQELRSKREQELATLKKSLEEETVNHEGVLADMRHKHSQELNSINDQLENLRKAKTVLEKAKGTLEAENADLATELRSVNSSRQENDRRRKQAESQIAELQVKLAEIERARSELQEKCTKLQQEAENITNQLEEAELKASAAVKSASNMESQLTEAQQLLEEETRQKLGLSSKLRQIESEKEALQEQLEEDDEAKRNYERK

Turning to “Drosophila myosin regulatory light chain (Sqh), mutant RLC-AA (natural protein)”, the stoichiometry N in experiment [1] and in experiment [2] was 1 throughout.

As for “Drosophila myosin regulatory light chain (Sqh), mutant RLC-AE (natural protein)”, the stoichiometry N in experiment [1] and in experiment [2] was 1 in each case.

As to “Drosophila myosin regulatory light chain (Sqh), mutant RLC-AS (natural protein)”, the stoichiometry N in experiment [1] and in experiment [2] was 1 in each case.

Consider “Drosophila myosin regulatory light chain (Sqh), mutant RLC-EE (natural protein)”, for which the stoichiometry N in experiment [1] and in experiment [2] was 1 each time.

Take “Drosophila myosin regulatory light chain (Sqh), mutant RLC-TA (natural protein)”: the stoichiometry N in experiment [1] and in experiment [2] was 1 each time.

Take “Drosophila non-muscle myosin II heavy meromyosin (HMM) with wild-type RLC, phosphorylated by MLCK (from UniProt Q99323-2 1-1363; P40423 1-174; P54357 1-147) (complex)”: the Kapp (apparent actin affinity) of the actin-activated steady-state ATPase, NADH-linked assay at 25°C, 0-100 µM filamentous actin, Michaelis-Menten fit in experiment [3] was found to be 38.9 µM.

B1: Drosophila myosin regulatory light chain (Sqh), wild type (natural protein, Drosophila melanogaster, UniProt P40423 1-174, looked up)
light: MSSRKTAGRRATTKKRAQRATSNVFAMFDQAQIAEFKEAFNMIDQNRDGFVEKEDLHDMLASLGKNPTDDYLDGMMNEAPGPINFTMFLTLFGERLQGTDPEDVIKNAFGCFDEENMGVLPEDRLRELLTTMGDRFTDEDVDEMYREAPIKNGLFDYLEFTRILKHGAKDKDEQ
notes: Drosophila myosin regulatory light chain Sqh (spaghetti squash); 19 kDa on the gel; also called RLC; RLC-TS; source: Sf9 insect cells (baculovirus, polycistronic vector with Mlc-c), co-expressed and co-purified with the heavy chain
For B1, the “stoichiometry N” value in experiment [4] and in experiment [5] was 1 each time.

B2: Drosophila myosin essential light chain (Mlc-c) (natural protein, Drosophila melanogaster, UniProt P54357 1-147, looked up)
light: MAAYTEDQLAEFQEAFNLFDNRGDGKIQLSQVGECLRALGQNPTESDVKKCTHQLKPDERISFEVFLPIYQAISKARSGDTADDFIEGLRHFDKDASGYISSAELRHLLTTLGEKLTDEEVEQLLANMEDQQGNINYEEFVRMVMSG
notes: Drosophila myosin essential light chain Mlc-c; 16 kDa on the gel; also called ELC; source: Sf9 insect cells (baculovirus, polycistronic vector with Sqh), co-expressed and co-purified with the heavy chain
Take B2: the “stoichiometry N” value in experiment [4] and in experiment [5] was 1 in each case.
